The source of these data is patent US20070065882.

In the data set the target is PKCβII in mouse brain (UniProt P68404).
Sequence of PKCβII in mouse brain (P68404 other isoform, or with tags, fused parts or gaps): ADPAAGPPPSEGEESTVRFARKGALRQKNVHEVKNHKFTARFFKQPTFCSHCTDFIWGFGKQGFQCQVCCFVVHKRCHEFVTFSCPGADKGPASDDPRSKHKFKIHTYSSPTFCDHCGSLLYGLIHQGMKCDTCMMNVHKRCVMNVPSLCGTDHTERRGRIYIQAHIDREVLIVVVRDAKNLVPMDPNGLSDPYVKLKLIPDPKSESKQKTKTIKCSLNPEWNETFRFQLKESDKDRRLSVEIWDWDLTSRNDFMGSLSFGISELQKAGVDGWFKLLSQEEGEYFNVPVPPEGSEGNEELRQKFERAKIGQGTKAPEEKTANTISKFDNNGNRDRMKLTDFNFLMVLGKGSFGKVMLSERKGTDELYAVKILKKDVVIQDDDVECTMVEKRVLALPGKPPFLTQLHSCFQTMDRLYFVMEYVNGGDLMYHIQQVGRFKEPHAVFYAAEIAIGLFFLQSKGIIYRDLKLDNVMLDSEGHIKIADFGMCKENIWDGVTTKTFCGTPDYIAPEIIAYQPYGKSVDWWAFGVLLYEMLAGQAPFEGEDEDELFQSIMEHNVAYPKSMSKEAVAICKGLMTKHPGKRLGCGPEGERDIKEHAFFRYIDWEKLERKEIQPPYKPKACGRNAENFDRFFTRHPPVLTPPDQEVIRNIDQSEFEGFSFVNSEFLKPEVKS

Take “recombinant human AChE-R, 'readthrough' variant of acetylcholinesterase”: the “PKC activity in brain homogenates (PKC assay kit, Upstate Biotechnology)” value was “Note the elevation of PKC activity in the different brain regions in the AChE-R transgenics as compared to FVB/N controls”.
